Results as given in paper PMC8233230, “RAD51AP1 mediates RAD51 activity through nucleosome interaction” (The Journal of Biological Chemistry, 2021).

Legend:
[1] = system: RAD51AP1 full-length, His6/FLAG (human); experiment: EMSA; settings: apparent, EMSA: 50 mM Tris-HCl pH 7.5, 100 mM NaCl, 4 C, 30 min, native 5% PAGE in 0.2x TBE
[2] = biological target: mononucleosome core particle (NCP) (human) (UniProt P04908); experiment: native gel or EMSA; apparent; full-length RAD51AP1 with the NCP, free NCP band quantified after ethidium bromide staining, corrected for the diminished staining of NCP-bound DNA
[3] = biological target: T1, purified human RAD51 (human, UniProt Q06609 1-339); experiment: far-Western, overlay or dot blot; RAD51AP1/NCP complex separated by EMSA (native gel), transferred to PVDF, membrane incubated with 3 ug/ml purified RAD51 in buffer I at 4 C overnight, bound RAD51 detected with anti-RAD51; settings: both partners purified
T1 construct: DNA repair protein RAD51 homolog 1 (RAD51 recombinase), human; also called RAD51 recombinase; source: purified
T1 sequence (looked up): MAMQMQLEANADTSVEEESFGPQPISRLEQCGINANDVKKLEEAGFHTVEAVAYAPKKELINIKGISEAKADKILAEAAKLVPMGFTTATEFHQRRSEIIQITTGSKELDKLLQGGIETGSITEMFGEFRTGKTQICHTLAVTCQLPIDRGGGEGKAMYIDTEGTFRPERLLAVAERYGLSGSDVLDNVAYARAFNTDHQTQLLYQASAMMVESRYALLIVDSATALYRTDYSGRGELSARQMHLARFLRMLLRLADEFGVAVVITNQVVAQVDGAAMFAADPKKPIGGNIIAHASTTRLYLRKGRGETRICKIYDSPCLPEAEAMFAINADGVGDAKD

With NCP (Widom 601, 147 bp) as the molecule, how does the Kd ([1]; corrected for EtBr staining (111/5.2; uncorrected 111 nM), 0.2 uM NCP) read?
The Kd was 21 nM.

With 147 bp dsDNA (Widom 601) as the molecule, how does the Kd ([1]; 0.1 uM DNA, EtBr stain) read?
The Kd was 12 nM.

How did the Kd [2] turn out when “full-length MBP-/His6-RAD51AP1 (from UniProt Q96B01-2 1-335) (natural protein)” was run?
The Kd was 21 nM.

B1: His6-/FLAG-tagged human RAD51AP1 (natural protein, UniProt Q96B01-2 1-335, looked up)
chain: MVRPVRHKKPVNYSQFDHSDSDDDFVSATVPLNKKSRTAPKELKQDKPKPNLNNLRKEEIPVQEKTPKKRMALDDKLYQRDLEVALALSVKELPTVTTNVQNSQDKSIEKHGSSKIETMNKSPHISNCSVASDYLDLDKITVEDDVGGVQGKRKAASKAAAQQRKILLEGSDGDSANDTEPDFAPGEDSEDDSDFCESEDNDEDFSMRKSKVKEIKKKEVKVKSPVEKKEKKSKSKCNALVTSVDSAPAAVKSESQSLPKKVSLSSDTTRKPLEIRSPSAESKKPKWVPPAASGGSRSSSSPLVVVSVKSPNQSLRLGLSRLARVKPLHPNATST
notes: numbers count on: RAD51AP1 isoform 2; also called His6/FLAG-tagged RAD51AP1; full-length FLAG-tagged RAD51AP1; source: expressed and purified
Does B1 bind [3]?
Result: binds
